We go through one molecule from publication PMC3516615 (Structure (London, England : 1993), 2012).

Broadly, the Kd is the free concentration of one partner at which half of the binding sites on the other are occupied at equilibrium, for simple one-to-one binding.

Positions count from the first letter of the chain named. Bounds are passed on as bounds.

Test [1] deals with T1, EphA2 SAM domain R950T (human, UniProt P29317 897-976, R950T).
T1 sequence (looked up): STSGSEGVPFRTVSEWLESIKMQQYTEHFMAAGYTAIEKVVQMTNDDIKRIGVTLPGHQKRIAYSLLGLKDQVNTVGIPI
Put plainly: ITC. In general terms: ITC needs no label: the signal is the heat of the interaction.

The target of test [2] is T2, EphA2 SAM domain (wild type) (human, UniProt P29317 897-976).
T2 sequence (looked up): T1 sequence (looked up) with T54R
Put plainly: NMR titration.

For test [3], the target named is EphB2 SAM domain penta-mutant L954K/T959R/A961P/K966R/N969Y (human). Put plainly: ITC.
Test [4] concerns the target T3, EphA2 SAM domain K956D (human, UniProt P29317 897-976, K956D).
T3 sequence (looked up): T1 sequence (looked up) with T54R, K60D
Put plainly: ITC.

Test [5] deals with T2, EphA2 SAM domain (wild type). The experiment in a line: ITC.
The target of test [6] is T4, EphA2 SAM domain K956E (human, UniProt P29317 897-976, K956E).
T4 sequence (looked up): T1 sequence (looked up) with T54R, K60E
Put plainly: ITC.

The target in test [7] is T5, EphA2 SAM domain K917D (human, UniProt P29317 897-976, K917D).
T5 sequence (looked up): T1 sequence (looked up) with K21D, T54R
The experiment in a line: ITC.

Test [8] has as its target T6, EphA2 SAM domain K945L/Y960N (human, UniProt P29317 897-976, K945L | Y960N).
T6 sequence (looked up): T1 sequence (looked up) with K49L, T54R, Y64N
Put plainly: ITC.

Test [9] has as its target T7, EphA2 SAM domain K945L (human, UniProt P29317 897-976, K945L).
T7 sequence (looked up): T1 sequence (looked up) with K49L, T54R
Put plainly: ITC.

For test [10], the target named is T8, EphA2 SAM domain Y960N (human, UniProt P29317 897-976, Y960N).
T8 sequence (looked up): T1 sequence (looked up) with T54R, Y64N
Put plainly: ITC.

For test [11], the target named is T9, EphA1 SAM domain (human, UniProt P21709 906-976).
T9 sequence (looked up): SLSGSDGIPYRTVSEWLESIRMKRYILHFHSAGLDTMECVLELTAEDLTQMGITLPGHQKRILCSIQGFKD
The experiment in a line: ITC.

In test [12] the target is T10, EphA2 SAM domain R950E (human, UniProt P29317 897-976, R950E).
T10 sequence (looked up): T1 sequence (looked up) with T54E
Put plainly: ITC.

B1: SHIP2 SAM domain (wild type) (domain or fragment, human, UniProt O15357 1192-1258, looked up)
chain: RASGLGEAGMSAWLRAIGLERYEEGLVHNGWDDLEFLSDITEEDLEEAGVQDPAHKRLLLDTLQLSK
As for B1, in test [1], the “fold enhancement of the interaction against the wild-type pair” value was ~4 fold. In addition, the Kd in test [2] is ~10 µM; in test [3], 7.6 µM; in test [4], > 50 µM; in [5] it was 5.2 ± 1.2 µM; in [6], > 50 µM; in test [7], 9.1 ± 5.7 µM. Besides, the Kd in [8] turned out to be 1.6 ± 0.6 µM; in [9], 1.3 ± 0.2 µM; in test [10], 3.1 ± 0.4 µM; in [11], 3.8 ± 0.4 µM; in test [12], 1.7 ± 0.3 µM. Also, the dH is -2.5 kcal/mol in test [5]; -0.85 kcal/mol in test [7]; -2 kcal/mol in test [8]; -2.1 kcal/mol in [9]; -3 kcal/mol in test [10]; -3.6 kcal/mol in [11]. The dH in [12] was -2.4 kcal/mol.
